Test results reported in the supplement of paper PMC9112550, “Optimization of the antimicrobial peptide Bac7 by deep mutational scanning” (BMC Biology, 2022).

Tested on: Escherichia coli TOP10
Test: shrunken log2 fold change of peptide-encoding DNA abundance (4.5 h post-induction vs induction); higher = less antimicrobial activity (less host growth inhibition)
Details: time post-induction: 4.5 h; library: site-saturation at positions 5, 18, 19, 20
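Note: peptides expressed intracellularly from a pBAD plasmid library in pooled LB shake-flask culture, induced with 0.3% L-arabinose, DNA abundance read by NGS, three biological replicates, DESeq2 with apeglm shrinkage.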

Going from RRIRMRPPRLPRPRPRPNCFPRP to RRIRYRPPRLPRPRPRPFIYPRP, the “shrunken log2 fold change” value falls from 0.153 to -0.86.

Compared with RRIRTRPPRLPRPRPRPRRCPRP, RRIRIRPPRLPRPRPRPNSNPRP is lower in “shrunken log2 fold change” value: 0.0091 for the first, -0.983 for the second.

RRIRTRPPRLPRPRPRPCHKPRP and RRIRDRPPRLPRPRPRPTDDPRP are within 0.2 log units of each other in “shrunken log2 fold change” value: 0.014 for the first, -0.0281 for the second.

First: RRIRCRPPRLPRPRPRPFHIPRP
Second: RRIRGRPPRLPRPRPRPCMIPRP
The “shrunken log2 fold change” value of the first is lower: -1.96 for the first, 0.235 for the second.

RRIRPRPPRLPRPRPRPPTAPRP and RRIRPRPPRLPRPRPRPRATPRP are within 0.2 log units of each other in “shrunken log2 fold change” value: 0.189 for the first, 0.261 for the second.

RRIRTRPPRLPRPRPRPRFRPRP and RRIRVRPPRLPRPRPRPIWFPRP are within 0.2 log units of each other in “shrunken log2 fold change” value: 0.158 for the first, -0.0241 for the second.

First: RRIRGRPPRLPRPRPRPSSDPRP
Second: RRIRQRPPRLPRPRPRPYDFPRP
The “shrunken log2 fold change” value of the first is higher: 0.439 for the first, -0.543 for the second.

RRIRMRPPRLPRPRPRPYDHPRP and RRIRARPPRLPRPRPRPTIVPRP are within 0.2 log units of each other in “shrunken log2 fold change” value: -0.141 for the first, -0.152 for the second.

Compared with RRIRMRPPRLPRPRPRPPKVPRP, RRIRLRPPRLPRPRPRPLKHPRP is lower in “shrunken log2 fold change” value: 0.272 for the first, -0.161 for the second.

Compared with RRIRIRPPRLPRPRPRPRACPRP, RRIRARPPRLPRPRPRPEGEPRP is higher in “shrunken log2 fold change” value: -0.148 for the first, 1.39 for the second.

RRIRFRPPRLPRPRPRPCYYPRP and RRIRVRPPRLPRPRPRPYMVPRP are within 0.2 log units of each other in “shrunken log2 fold change” value: -0.401 for the first, -0.292 for the second.

RRIRNRPPRLPRPRPRPGMAPRP and RRIRIRPPRLPRPRPRPVSCPRP are within 0.2 log units of each other in “shrunken log2 fold change” value: 0.0313 for the first, -0.0157 for the second.

RRIRMRPPRLPRPRPRPRIKPRP and RRIRFRPPRLPRPRPRPWAHPRP are within 0.2 log units of each other in “shrunken log2 fold change” value: 0.0377 for the first, 0.195 for the second.

Going from RRIRARPPRLPRPRPRPAEKPRP to RRIRKRPPRLPRPRPRPRPKPRP, the “shrunken log2 fold change” value rises from -0.0197 to 1.03.

RRIRIRPPRLPRPRPRPEFVPRP and RRIRDRPPRLPRPRPRPNCIPRP are within 0.2 log units of each other in “shrunken log2 fold change” value: -0.0754 for the first, -0.00269 for the second.

Compared with RRIRWRPPRLPRPRPRPRGVPRP, RRIRCRPPRLPRPRPRPRRGPRP is lower in “shrunken log2 fold change” value: 0.756 for the first, 0.392 for the second.

Going from RRIRRRPPRLPRPRPRPSLSPRP to RRIRHRPPRLPRPRPRPSVWPRP, the “shrunken log2 fold change” value falls from 2.85 to -0.151.

Going from RRIRRRPPRLPRPRPRPISSPRP to RRIRLRPPRLPRPRPRPNSPPRP, the “shrunken log2 fold change” value falls from 0.0497 to -0.418.

First: RRIRGRPPRLPRPRPRPVWRPRP
Second: RRIRLRPPRLPRPRPRPVMTPRP
The “shrunken log2 fold change” value of the first is higher: 1.21 for the first, -0.148 for the second.

First: RRIRERPPRLPRPRPRPEWDPRP
Second: RRIRERPPRLPRPRPRPRTIPRP
The “shrunken log2 fold change” value of the first is higher: -0.105 for the first, -0.337 for the second.

First: RRIRKRPPRLPRPRPRPINTPRP
Second: RRIRARPPRLPRPRPRPVGHPRP
The “shrunken log2 fold change” value of the first is lower: -0.0237 for the first, 0.189 for the second.

RRIRVRPPRLPRPRPRPGSTPRP and RRIRVRPPRLPRPRPRPKRIPRP are within 0.2 log units of each other in “shrunken log2 fold change” value: -0.311 for the first, -0.114 for the second.

RRIRLRPPRLPRPRPRPQFGPRP and RRIRHRPPRLPRPRPRPRMWPRP are within 0.2 log units of each other in “shrunken log2 fold change” value: -0.291 for the first, -0.237 for the second.

RRIRTRPPRLPRPRPRPPHWPRP and RRIRGRPPRLPRPRPRPTNSPRP are within 0.2 log units of each other in “shrunken log2 fold change” value: 0.333 for the first, 0.319 for the second.

RRIRVRPPRLPRPRPRPPMTPRP and RRIRPRPPRLPRPRPRPVTSPRP are within 0.2 log units of each other in “shrunken log2 fold change” value: 0.209 for the first, 0.0344 for the second.

RRIRWRPPRLPRPRPRPTIGPRP and RRIRRRPPRLPRPRPRPTTHPRP are within 0.2 log units of each other in “shrunken log2 fold change” value: 0.217 for the first, 0.306 for the second.

First: RRIRQRPPRLPRPRPRPGWFPRP
Second: RRIRPRPPRLPRPRPRPLIYPRP
The “shrunken log2 fold change” value of the first is higher: 0.209 for the first, -0.457 for the second.

First: RRIRMRPPRLPRPRPRPTWSPRP
Second: RRIRMRPPRLPRPRPRPNAIPRP
The “shrunken log2 fold change” value of the first is higher: 0.66 for the first, 0.0397 for the second.

RRIRKRPPRLPRPRPRPLNDPRP and RRIRDRPPRLPRPRPRPCSRPRP are within 0.2 log units of each other in “shrunken log2 fold change” value: -0.0546 for the first, 0.0202 for the second.

Going from RRIRYRPPRLPRPRPRPQGMPRP to RRIRFRPPRLPRPRPRPQFKPRP, the “shrunken log2 fold change” value falls from -0.0114 to -0.217.

Going from RRIRPRPPRLPRPRPRPDDRPRP to RRIRNRPPRLPRPRPRPSIWPRP, the “shrunken log2 fold change” value falls from 0.162 to -0.474.

Going from RRIRARPPRLPRPRPRPLFCPRP to RRIRWRPPRLPRPRPRPMKNPRP, the “shrunken log2 fold change” value rises from 0.00332 to 0.226.

Going from RRIRVRPPRLPRPRPRPTSTPRP to RRIRFRPPRLPRPRPRPHMYPRP, the “shrunken log2 fold change” value falls from -0.103 to -1.28.

First: RRIRPRPPRLPRPRPRPSVPPRP
Second: RRIRIRPPRLPRPRPRPLKHPRP
The “shrunken log2 fold change” value of the first is higher: -0.166 for the first, -0.58 for the second.

RRIRDRPPRLPRPRPRPASGPRP and RRIRERPPRLPRPRPRPDWLPRP are within 0.2 log units of each other in “shrunken log2 fold change” value: 0.15 for the first, 0.00866 for the second.

First: RRIRRRPPRLPRPRPRPWLRPRP
Second: RRIRVRPPRLPRPRPRPTRDPRP
The “shrunken log2 fold change” value of the first is lower: -0.103 for the first, 0.472 for the second.

RRIRTRPPRLPRPRPRPWSIPRP and RRIRARPPRLPRPRPRPSHVPRP are within 0.2 log units of each other in “shrunken log2 fold change” value: -0.325 for the first, -0.306 for the second.

First: RRIRLRPPRLPRPRPRPRGFPRP
Second: RRIRSRPPRLPRPRPRPSDHPRP
The “shrunken log2 fold change” value of the first is higher: 0.124 for the first, -0.555 for the second.

Going from RRIRMRPPRLPRPRPRPCHLPRP to RRIRCRPPRLPRPRPRPQEHPRP, the “shrunken log2 fold change” value falls from -0.0745 to -0.389.

RRIRRRPPRLPRPRPRPHMNPRP and RRIRERPPRLPRPRPRPRSVPRP are within 0.2 log units of each other in “shrunken log2 fold change” value: -0.315 for the first, -0.219 for the second.

RRIRPRPPRLPRPRPRPLIQPRP and RRIRTRPPRLPRPRPRPWQRPRP are within 0.2 log units of each other in “shrunken log2 fold change” value: -0.0119 for the first, 0.157 for the second.

Going from RRIRSRPPRLPRPRPRPMHNPRP to RRIRARPPRLPRPRPRPMMIPRP, the “shrunken log2 fold change” value rises from -0.179 to 0.313.

First: RRIRHRPPRLPRPRPRPEWTPRP
Second: RRIRCRPPRLPRPRPRPFFSPRP
The “shrunken log2 fold change” value of the first is higher: 0.0291 for the first, -0.242 for the second.

RRIRMRPPRLPRPRPRPWRNPRP and RRIRRRPPRLPRPRPRPHDCPRP are within 0.2 log units of each other in “shrunken log2 fold change” value: -0.00207 for the first, 0.00386 for the second.

RRIRKRPPRLPRPRPRPKVQPRP and RRIRRRPPRLPRPRPRPGMCPRP are within 0.2 log units of each other in “shrunken log2 fold change” value: 0.092 for the first, 0.269 for the second.

Going from RRIRMRPPRLPRPRPRPTSMPRP to RRIRGRPPRLPRPRPRPESGPRP, the “shrunken log2 fold change” value rises from 0.0931 to 1.12.

RRIRRRPPRLPRPRPRPHYFPRP and RRIRMRPPRLPRPRPRPNCCPRP are within 0.2 log units of each other in “shrunken log2 fold change” value: -0.173 for the first, -0.0306 for the second.

First: RRIRKRPPRLPRPRPRPRQPPRP
Second: RRIRTRPPRLPRPRPRPMHCPRP
The “shrunken log2 fold change” value of the first is higher: 0.467 for the first, -0.235 for the second.

Compared with RRIRWRPPRLPRPRPRPKITPRP, RRIRRRPPRLPRPRPRPKHAPRP is higher in “shrunken log2 fold change” value: 0.0282 for the first, 0.407 for the second.

Compared with RRIRGRPPRLPRPRPRPFIPPRP, RRIRFRPPRLPRPRPRPWCRPRP is higher in “shrunken log2 fold change” value: -0.429 for the first, -0.172 for the second.

First: RRIRYRPPRLPRPRPRPPYHPRP
Second: RRIRVRPPRLPRPRPRPDLIPRP
The “shrunken log2 fold change” value of the first is lower: -0.82 for the first, 0.0639 for the second.

Going from RRIRKRPPRLPRPRPRPPHGPRP to RRIRVRPPRLPRPRPRPPNVPRP, the “shrunken log2 fold change” value falls from 0.634 to -0.0619.

Going from RRIRNRPPRLPRPRPRPGHIPRP to RRIRQRPPRLPRPRPRPCCIPRP, the “shrunken log2 fold change” value rises from -0.433 to -0.159.

Going from RRIRLRPPRLPRPRPRPAMWPRP to RRIRERPPRLPRPRPRPIMSPRP, the “shrunken log2 fold change” value falls from 0.373 to -0.38.

RRIRLRPPRLPRPRPRPQSPPRP and RRIRFRPPRLPRPRPRPIMIPRP are within 0.2 log units of each other in “shrunken log2 fold change” value: -0.0515 for the first, -0.113 for the second.

RRIRNRPPRLPRPRPRPCKCPRP and RRIRHRPPRLPRPRPRPRACPRP are within 0.2 log units of each other in “shrunken log2 fold change” value: 0.00489 for the first, 0.0227 for the second.

Going from RRIRERPPRLPRPRPRPLLSPRP to RRIRDRPPRLPRPRPRPGKTPRP, the “shrunken log2 fold change” value rises from -0.206 to -0.00088.

Going from RRIRQRPPRLPRPRPRPFRIPRP to RRIRSRPPRLPRPRPRPGCVPRP, the “shrunken log2 fold change” value rises from -0.0135 to 0.247.

RRIRLRPPRLPRPRPRPKFCPRP and RRIRTRPPRLPRPRPRPSTKPRP are within 0.2 log units of each other in “shrunken log2 fold change” value: -0.0573 for the first, -0.145 for the second.

Compared with RRIRERPPRLPRPRPRPHTKPRP, RRIRMRPPRLPRPRPRPGERPRP is higher in “shrunken log2 fold change” value: 0.0349 for the first, 0.772 for the second.

Compared with RRIRHRPPRLPRPRPRPPESPRP, RRIRCRPPRLPRPRPRPGHYPRP is lower in “shrunken log2 fold change” value: 0.211 for the first, -0.0646 for the second.

Compared with RRIRMRPPRLPRPRPRPANWPRP, RRIRERPPRLPRPRPRPFMMPRP is lower in “shrunken log2 fold change” value: 2.4 for the first, -0.584 for the second.

For RRIRCRPPRLPRPRPRPWCRPRP, the “shrunken log2 fold change” value was -0.282.
